Measured values taken from patent CN114773485A (JIANGSU SIMCERE PHARM CO LTD, dated 2022).
Values joined by “and” are separate entries in the source; they are usually repeats but may differ in a detail not shown here. Equal entries are not always repeated.

How the values were obtained:
[1] = molecular target: T1, PD-L1 on CHO-PD-L1 cells (UniProt Q9NZQ7 19-290, limits assumed); assay: cell-based or functional assay
[2] = molecular target: T1, PD-L1 on CHO-PD-L1 cells; assay: flow cytometry on CHO-PD-L1 cells, anti-human IgG PE
[3] = molecular target: T2, PD-L1 on mature human dendritic cells (human, UniProt Q9NZQ7 19-290); assay: flow cytometry on mature human DC, anti-human IgG PE
T2 construct: whole, on cells; also called DC细胞表面PD-L1
T2 sequence (Q9NZQ7 19-290): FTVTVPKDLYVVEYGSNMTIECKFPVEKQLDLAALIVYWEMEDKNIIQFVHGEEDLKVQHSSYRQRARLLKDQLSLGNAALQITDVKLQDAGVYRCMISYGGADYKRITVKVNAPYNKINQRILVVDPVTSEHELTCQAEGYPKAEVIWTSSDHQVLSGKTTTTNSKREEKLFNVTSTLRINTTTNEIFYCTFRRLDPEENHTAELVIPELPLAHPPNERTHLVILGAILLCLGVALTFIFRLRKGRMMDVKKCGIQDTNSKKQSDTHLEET

[4] = molecular target: T3, 人PD-L1重组蛋白(Sino Biological,Cat.10084-H05H) (human, UniProt Q9NZQ7 19-239); assay: competition ELISA, human PD-L1 coated, blocks PD-1-His
T3 construct: also called 人PD-L1蛋白
T3 sequence (Q9NZQ7 19-239 limits assumed): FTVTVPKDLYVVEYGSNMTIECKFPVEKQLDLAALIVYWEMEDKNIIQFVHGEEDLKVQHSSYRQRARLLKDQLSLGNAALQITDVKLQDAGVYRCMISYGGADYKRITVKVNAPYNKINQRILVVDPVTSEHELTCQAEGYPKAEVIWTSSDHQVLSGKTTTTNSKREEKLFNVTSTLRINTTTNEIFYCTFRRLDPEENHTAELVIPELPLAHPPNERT

[5] = molecular target: T4, 食蟹猴PD-L1蛋白(Cat.#90251-C08H，Sinobiological) (cynomolgus monkey, UniProt G7PSE7 19-239); assay: SPR, Biacore T200, antibody captured on Protein A chip, 25℃, 1:1 model
T4 construct: Bought protein used as analyte in Biacore; also called 食蟹猴PD-L1-His蛋白; 食蟹猴PD-L1重组蛋白; not shown: His tag
T4 sequence (G7PSE7 entry or part of it C08H C08H): as the sequence (Q9NZQ7 19-239 limits assumed) above, with A33T, A34S, S62N, R68Q, Q82R, F173L, T185A, T192I, H215L counted along it

[6] = molecular target: T5, 重组人TGF-β1蛋白 (human, UniProt P01137 279-390); assay: bridging ELISA: TGF-β1 coated, test molecule, then PD-L1-His and anti-His-HRP
T5 construct: also called 重组人、食蟹猴TGF-β1(Cat.#10804-HNAC，Sinobiological); 人TGF-β1重组蛋白(Novoprotein,Cat.CA59)
T5 sequence (P01137 279-390 limits assumed): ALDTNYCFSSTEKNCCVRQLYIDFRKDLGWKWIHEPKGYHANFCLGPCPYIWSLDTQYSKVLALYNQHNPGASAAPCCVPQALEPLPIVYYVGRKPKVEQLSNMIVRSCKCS

T1 sequence (Q9NZQ7 19-290 limits assumed): as the sequence (Q9NZQ7 19-290) above

- EC50, NFAT luciferase reporter (RLU), Jurkat-PD-1/CHO-PD-L1 [1]: 341 ng/ml and 2.15 nM
- EC50 [2]: 0.105 mg/L
- EC50 [3]: 0.405 nM
- IC50 [4]: 0.896 nM and 1.49 nM
- binding result [5]: binds
- binding result [6]: no binding (tested: 4nM)
B1: 人源化抗PD-L1抗体156-BM12 (antibody, V domains shown)
VH: QVQLVQSGPELKKPGASVKISCKASGYTFTDYYMNWVRQAPGQSLEWIGDINPNNGDTSYNQKFKGRVTLTRDTSTSTVYMELRSLRSEDTAVYYCARSVMDYWGQGTLVTVSS
VL: EIVLTQSPALLSLSPGERVTLSCSASSSVNYVYWYQQKPGQAPRPLIYLTFNLASGIPARFSGSGSGTDFTLTISSLEPEDFAVYYCQQWSSNPLTFGGGTKVEIK
notes: also called PD-L1单抗156-BM12; 人源化PD-L1抗体
